# Measured values from patent US20210388087A1 (Chugai, published 2021).
# Target: T1, CD3 epsilon homodimer protein (UniProt P07766 23-126)
# T1 construct: also called CD3 (CD3 epsilon)
# Assay: SPR Biacore T200, CD3e homodimer on chip, vs unaltered GLS3000 antibody
# T1 sequence (P07766 23-126): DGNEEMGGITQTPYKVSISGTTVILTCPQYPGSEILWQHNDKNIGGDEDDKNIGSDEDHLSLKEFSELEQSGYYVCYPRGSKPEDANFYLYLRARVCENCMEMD
row,Binder,ratio of amounts bound (Z=Y/X)
1,"GLS3000 G89N (antibody, name in Kabat numbering, V domains shown, one-arm IgG as m2) VH: QVQLVESGGGVVQPGRSLRLSCAASGFTFSNAWMHWVRQAPGKGLEWVAQIKAKSNNYATYYAESVKGRFTISRDDSKNSLYLQMNSLKTEDTAVYYCRYVHYGAYYGVDAWGQGTTVTVSS VL: DIVMTQSPLSLPVTPGEPASISCRSSQSLVHSNRNTYLHWYQQKPGQAPRLLIYKVSNRFSGVPDRFSGSGSGTDFTLKISRVEAEDVGVYYCNQGTQVPYTFGQGTKLEIK",0.8
2,"GLS3000 G89P (antibody, name in Kabat numbering, V domains shown, one-arm IgG as m2) VH: QVQLVESGGGVVQPGRSLRLSCAASGFTFSNAWMHWVRQAPGKGLEWVAQIKAKSNNYATYYAESVKGRFTISRDDSKNSLYLQMNSLKTEDTAVYYCRYVHYGAYYGVDAWGQGTTVTVSS VL: DIVMTQSPLSLPVTPGEPASISCRSSQSLVHSNRNTYLHWYQQKPGQAPRLLIYKVSNRFSGVPDRFSGSGSGTDFTLKISRVEAEDVGVYYCPQGTQVPYTFGQGTKLEIK",0.35
3,"GLS3000 G89R (antibody, name in Kabat numbering, V domains shown, one-arm IgG as m2) VH: QVQLVESGGGVVQPGRSLRLSCAASGFTFSNAWMHWVRQAPGKGLEWVAQIKAKSNNYATYYAESVKGRFTISRDDSKNSLYLQMNSLKTEDTAVYYCRYVHYGAYYGVDAWGQGTTVTVSS VL: DIVMTQSPLSLPVTPGEPASISCRSSQSLVHSNRNTYLHWYQQKPGQAPRLLIYKVSNRFSGVPDRFSGSGSGTDFTLKISRVEAEDVGVYYCRQGTQVPYTFGQGTKLEIK",0.19
4,"GLS3000 G89Q (antibody, name in Kabat numbering, V domains shown, one-arm IgG as m2) VH: QVQLVESGGGVVQPGRSLRLSCAASGFTFSNAWMHWVRQAPGKGLEWVAQIKAKSNNYATYYAESVKGRFTISRDDSKNSLYLQMNSLKTEDTAVYYCRYVHYGAYYGVDAWGQGTTVTVSS VL: DIVMTQSPLSLPVTPGEPASISCRSSQSLVHSNRNTYLHWYQQKPGQAPRLLIYKVSNRFSGVPDRFSGSGSGTDFTLKISRVEAEDVGVYYCQQGTQVPYTFGQGTKLEIK",0.38

# The remaining lines, values ahead:
row,ratio of amounts bound (Z=Y/X),Binder
1,1.03,"GLS3000 G89T (antibody, name in Kabat numbering, V domains shown, one-arm IgG as m2) VH: QVQLVESGGGVVQPGRSLRLSCAASGFTFSNAWMHWVRQAPGKGLEWVAQIKAKSNNYATYYAESVKGRFTISRDDSKNSLYLQMNSLKTEDTAVYYCRYVHYGAYYGVDAWGQGTTVTVSS VL: DIVMTQSPLSLPVTPGEPASISCRSSQSLVHSNRNTYLHWYQQKPGQAPRLLIYKVSNRFSGVPDRFSGSGSGTDFTLKISRVEAEDVGVYYCTQGTQVPYTFGQGTKLEIK"
2,1.63,"GLS3000 G89V (antibody, name in Kabat numbering, V domains shown, one-arm IgG as m2) VH: QVQLVESGGGVVQPGRSLRLSCAASGFTFSNAWMHWVRQAPGKGLEWVAQIKAKSNNYATYYAESVKGRFTISRDDSKNSLYLQMNSLKTEDTAVYYCRYVHYGAYYGVDAWGQGTTVTVSS VL: DIVMTQSPLSLPVTPGEPASISCRSSQSLVHSNRNTYLHWYQQKPGQAPRLLIYKVSNRFSGVPDRFSGSGSGTDFTLKISRVEAEDVGVYYCVQGTQVPYTFGQGTKLEIK"
3,0.5,"GLS3000 G89W (antibody, name in Kabat numbering, V domains shown, one-arm IgG as m2) VH: QVQLVESGGGVVQPGRSLRLSCAASGFTFSNAWMHWVRQAPGKGLEWVAQIKAKSNNYATYYAESVKGRFTISRDDSKNSLYLQMNSLKTEDTAVYYCRYVHYGAYYGVDAWGQGTTVTVSS VL: DIVMTQSPLSLPVTPGEPASISCRSSQSLVHSNRNTYLHWYQQKPGQAPRLLIYKVSNRFSGVPDRFSGSGSGTDFTLKISRVEAEDVGVYYCWQGTQVPYTFGQGTKLEIK"
4,1.19,"GLS3000 G89Y (antibody, name in Kabat numbering, V domains shown, one-arm IgG as m2) VH: QVQLVESGGGVVQPGRSLRLSCAASGFTFSNAWMHWVRQAPGKGLEWVAQIKAKSNNYATYYAESVKGRFTISRDDSKNSLYLQMNSLKTEDTAVYYCRYVHYGAYYGVDAWGQGTTVTVSS VL: DIVMTQSPLSLPVTPGEPASISCRSSQSLVHSNRNTYLHWYQQKPGQAPRLLIYKVSNRFSGVPDRFSGSGSGTDFTLKISRVEAEDVGVYYCYQGTQVPYTFGQGTKLEIK"
